{"source": "patent US8048433B2", "about": "“Deacylation of LPS in gram negative bacteria” (priority 2004, dated 2011)", "molecules": {"B1": {"name": "PagL(Bb): lipid A 3-O-deacylase PagL of B. bronchiseptica, SEQ ID No. 1 (protein, listed as Bordetella sp.)", "chain": "MQFLKKNKPLFGIVTLALACATAQAQPTQGGVSLHYGIGDHYQRVTLNYETPTLWSHQFGGNWGRLDLTPELGASYWWADGSRSPGHVWQASAIPMFRWWTGERFYIEAGIGATVFSSTSFADKRIGSAFQFGDHIGLGFLLTPSNRIGLRYSHFSNAGIKEPNPGLDIVQLTYTYQF"}, "B2": {"name": "PagL(Pa)(−): P. aeruginosa PagL without its signal sequence, refolded in vitro from inclusion bodies and purified (protein, UniProt Q9HVD1 24-173, looked up)", "Lipid A deacylase PagL": "ADVSAAVGATGQSGMTYRLGLSWDWDKSWWQTSTGRLTGYWDAGYTYWEGGDEGAGKHSLSFAPVFVYEFAGDSIKPFIEAGIGVAAFSGTRVGDQNLGSSLNFEDRIGAGLKFANGQSVGVRAIHYSNAGLKQPNDGIESYSLFYKIPI"}, "B3": {"name": "PagP(Ec): palmitoyl transferase PagP of E. coli, expressed in B. pertussis as a control (protein, UniProt P37001 26-186, looked up)", "Lipid A palmitoyltransferase …": "NADEWMTTFRENIAQTWQQPEHYDLYIPAITWHARFAYDKEKTDRYNERPWGGGFGLSRWDEKGNWHGLYAMAFKDSWNKWEPIAGYGWESTWRPLADENFHLGLGFTAGVTARDNWNYIPLPVLLPLASVGYGPVTFQMTYIPGTYNNGNVYFAWMRFQF"}, "B4": {"name": "PagL(Pa): PagL homolog (lipid A 3-O-deacylase) of P. aeruginosa, SEQ ID No:6 (protein, listed as Pseudomonas aeruginosa)", "chain": "MKKLLPLAVLAALSSVHVASAQAADVSAAVGATGQSGMTYRLGLSWDWDKSWWQTSTGRLTGYWDAGYTYWEGGDEGAGKHSLSFAPVFVYEFAGDSIKPFIEAGIGVAAFSGTRVGDQNLGSSLNFEDRIGAGLKFANGQSVGVRAIHYSNAGLKQPNDGIESYSLFYKIPI"}}, "key": {"B. pertussis LPS": {"tested_on": "B. pertussis LPS", "test": "Expression of PagL and PagP in B. pertussis strain Tohama, lipid A analysed by ESI-MS and Tricine-SDS-PAGE", "type": "cell-based", "conditions": "for relative abundance of lipid A molecular ions: palmitoylate: Table III total of palmitoylated species", "method": "LPS was isolated using the hot phenol/water extraction method (Westphal and Jann, Methods Carbohydr. Chem. 5; 83-91, 1965) with slight modifications. In short, bacteria were grown in THIJS medium in the presence of 1 mM IPTG (end concentration) for 64 h. Cells were harvested by centrifugation and resuspended in 40 mM sodium phosphate buffer (pH 7.0) containing 5 mM EDTA. The cells were treated overnight with lysozyme at 4° C., after which an equal volume of phenol was added. The suspension was heated to 70° C., incubated for 30 min while shaking, and subsequently cooled to 10° C., after which phases were separated by centrifugation for 10 min at 8,000×g. The upper phase was collected and the extraction was repeated after adding an equal volume of distilled water to the lower phase. The two upper phases were combined, dialysed against tap water until the phenol odour disappeared, freeze-dried, and subsequently taken up in distilled water. The LPS was subsequently pelleted by centrifugation for 3 h at 150,000×g and dissolved in distilled water, after which the LPS concentration was determined by analysing the 3-hydroxytetradecanoic acid content, using a 6890 Agilent gas chromatograph, as described (Welch, Clin. Microbiol. Rev. 1991). For ESI-MS, a 200 μl aliquot of isolated LPS (50 nmol/ml) was freeze-dried and taken up in 0.1 ml 2% acetic acid. The mixture was heated for 2 h at 95° C. to hydrolyse the LPS and release the lipid A moiety. Subsequently, the mixture was cooled to room temperature and centrifuged for 10 min at 16,100×g. The pellet was washed twice in 0.1 ml double-distilled water, taken up in 0.1 ml double-distilled water, and 0.3 ml chloroform/methanol (2:1, v/v) was added. After vigorous vortexing, phases were separated by centrifugation for 10 min at 16,100×g. The […] phase was then used for structural analysis of purified lipid A by nanoelectrospray tandem MS on a Finnigan LCQ in the negative ion mode (Wilm and Mann, Anal. Chem. 1996).\nTo express PagP and PagL in B. pertussis strain Tohama, the pagL gene of B. bronchiseptica (pagL(Bb)) and the pagP gene of B. pertussis (pagP(Bp)) were expressed from the broad-host range low-copy number expression vector pMMB67EH. As a control, a strain expressing the pagP gene of E. coli (pagP(Ec)) was also constructed. LPS was isolated from wild-type, PagP-expressing, or PagL-expressing B. pertussis strain Tohama and analysed by Tricine-SDS-PAGE. LPS isolated from the PagL(Bb)-expressing strain appeared unaffected on the gel, whereas that from the PagP-expressing appeared potentially modified, since a band with a lower electrophoretic mobility than that of wild-type B. pertussis LPS was detected (FIG. 14). Furthermore, as compared to the PagP(Bp)-expressing strain, the modification-efficiency appeared higher in the PagP(Ec)-expressing strain (FIG. 14). To evaluate the possible LPS modifications in further detail, the lipid A moieties of the strains were analysed by ESI-MS in the negative-ion mode. […] The peak at m/z 1557 represents the characteristic penta-acylated bis-phosphate species that is typically found in B. pertussis (Caroff et al., Microbes. Infect., 1994), whereas the peak at m/z 1477 corresponds to a penta-acylated mono-phosphate species. The two remaining peaks at m/z 1307 and 1251 represent deacylated lipid A species of the molecular ion at m/z 1477, which miss the primary 3-hydroxydecanoic acid residue at the 3 position or a primary 3-hydroxytetradecanoic acid residue (either at the 2 or the 3′ position), respectively. […] Furthermore, the large majority of lipid A species are mono-phosphate forms (˜80%). […]"}, "E. coli LPS": {"tested_on": "E. coli LPS", "test": "In vivo modification of E. coli LPS by PagL expressed in E. coli BL21 Star (DE3) (Tricine-SDS-PAGE, GC/MS, ESI-MS)", "type": "cell-based", "conditions": "GC/MS and ESI-MS data", "method": "To LPS-containing samples 0.5 mg/ml proteinase K (end concentration) was added to the sample buffer (28). The samples were incubated for 60 min at 55° C., followed by 10 min at 95° C. to inactivate proteinase K. The samples was then diluted 10 fold by adding sample buffer, after which 2 μl of the sample were applied to a Tricine-SDS-PAGE gel (30). The bromophenol blue was allowed to run into the separating gel at 35 V, after which the voltage was increased to 105 V. After the front reached the bottom of the gel, the samples were left running for another 45 min. The gels were fixed overnight in water/ethanol/acetic acid 11:8:1 (v/v/v) and subsequently stained with silver as described (31).\nLPS was isolated using the hot phenol/water extraction method (3). […]\nTo study whether the cloned PagL homologs were active on E. coli LPS, IPTG was added to exponentially growing E. coli BL21 Star™ (DE3) cells containing the empty vector pET-11a or the pPagL plasmids, and after various incubation periods, samples equivalent to one OD600 unit were collected and their LPS content was analyzed by Tricine-SDS-PAGE. […]\nStructural Analysis of PagL-Modified LPS: to determine its fatty acid content, LPS was isolated from bacteria that were grown in the presence of 10 mM MgCl2 to suppress PhoP/PhoQ-regulated modifications of lipid A and analyzed by GC/MS. […]"}, "[1]": {"test": "In vitro modification assay with refolded or membrane-localized PagL (Tricine-SDS-PAGE)", "type": "biochemical", "conditions": "purified N. meningitidis LPS", "method": "Refolded PagL(Pa)(−) (10 mg/ml) or cell envelopes isolated from E. coli BL21 Star™ (DE3) containing the empty vector pET-11a or the pPagL plasmids were diluted 10 fold in double distilled water. 4 μl of the diluted refolded protein or cell envelope solution was incubated in 50 mM Hepes (pH 8.0), 0.1% Triton X-100, 0.5 M NaCl, and 0.75 nmol N. meningitidis L3-LPS in a final volume of 10 μl at 37° C. for 16 h. To test whether the reaction was dependent on divalent cations, 5 mM EDTA was added into the reaction with the refolded PagL(Pa)(−). The reactions were terminated by boiling in sample buffer (28), after which the samples were treated with 0.5 mg/ml proteinase K for 1 hour at 55° C., followed by 10 min incubation at 95° C. The samples were diluted 25 fold by adding sample buffer, after which 2 μl of the samples were analysed by Tricine-SDS-PAGE (see above)."}, "[2]": {"conditions": "B. pertussis strain Tohama, ESI-MS"}}, "data": [{"molecule": "B1", "values": [{"measurement": "relative content of lipid A species that miss the 3-hydroxydecanoic acid residue at their 3 position", "setting": "B. pertussis LPS; B. pertussis strain Tohama, ESI-MS peak heights", "value": "more than 92%"}, {"measurement": "relative abundance of lipid A molecular ions: palmitoylate", "setting": "B. pertussis LPS; [2]", "value": 0.0}, {"measurement": "lipid A 3-O-deacylase activity in B. pertussis", "setting": "B. pertussis LPS; B. pertussis strain Tohama, pMMB67EH expression, ESI-MS", "value": "active in B. pertussis"}, {"measurement": "lipid A deacylase activity", "setting": "E. coli LPS", "value": "active lipid A deacylases"}]}, {"molecule": "B2", "values": [{"measurement": "in vitro deacylation of LPS in the presence of EDTA", "setting": "[1]; 5 mM EDTA, FIG. 13B", "value": "deacylation of LPS was still observed"}, {"measurement": "in vitro modification of externally added LPS", "setting": "[1]; 37° C., detergent-containing buffer, FIG. 13", "value": "converted into a form with a higher electrophoretic mobility"}]}, {"molecule": "B3", "values": [{"measurement": "share of the total lipid A population palmitoylated", "setting": "B. pertussis LPS; B. pertussis strain Tohama expressing PagP, ESI-MS", "value": "~47", "unit": "%"}, {"measurement": "relative abundance of lipid A molecular ions: palmitoylate", "setting": "B. pertussis LPS; [2]", "value": 46.5}, {"measurement": "modification-efficiency", "setting": "B. pertussis LPS; Tricine-SDS-PAGE of B. pertussis LPS, compared to the PagP(Bp)-expressing strain, FIG. 14", "value": "higher"}]}, {"molecule": "B4", "values": [{"measurement": "lipid A deacylase activity", "setting": "E. coli LPS", "value": "active lipid A deacylases"}]}]}
